This series in a line: soluble on expression in E. coli; label from the status in PepcDB or PDB records.
For “GPGSMKLERSSCFEVQGCISCLTQASNEDACLASTMMNGAHIFHMGDLQHAQCGARQAVTHVETFPHGNFGEGAVISSSFVSYDSCFATGSSSGDIVLVSRHSKNVVQHYSFQNKAAVLSLKEVPNEPSLLLACSPTDAQIIDLETSTARINLHIPKPCVVGGTALTQNTLVVAAYDGKAMLYDVRRGHEPVVILAVPDQIISITSSPDTGAVATGTVSGRVFVLRCLEGNVREEAFSTGKERAPIRSVAMRNGYIAAGDTSAKLTCLDLKEDPKPTRYWDLHSLLTNESGPPSSGAEKLSSVTVPDTESWSLPAVMLQQSDLWAALSSTKYGVSHILAIPI”, the “soluble on expression in E. coli” value was “not soluble”.
Turning to “MKNIGVNINSCKDPDGTIRKYVEKVIKEEKKDVQVKFYDELNYFDEVCKTKPDFFIAFGGDGTILNAARNLVSCGIPIFSVNIGHLGFLSSIEFKDFKDAIHKIFKGEYFFQERTMLKCSFIKGNSKKVFYSLNEVVLYKGNMAKILKYNIDVDDKFYMGFKSDGIIISTPTGSTAYNLSAGGPIIYPNLDLISLTPICPQGPYAGTIVLDGKSNITISGIDANENVFITVDGRQPVDVKGVSFIEISKLNYKCKLLKLKDYNYFEVLRKKIILRTEECEGDKYMAGDPLEHHHHHH”, the “soluble on expression in E. coli” value was “soluble”.
Consider “MFPLFPNPQTRRTMSVLSEQVDGRPPQPPSGRRGKRWLRAIAAGALLAAGGGASTQPVAQQAPQSHARKVKVLIISMFAPEAQPWIDKLGLTQAVPVPGLSIDYPSVHCNASDVCQLTTGMGKANAASSVSALIHSGQFDLSRAYFLVAGIAGIDPSQGTLGTAAWARYLVDSDLAWEIDAREVPADWPNGFIGINTQGPGQKPPLNYKTEIFRVNEALLQKALALSKGAVLDDNATARAYRANYPSAPANQPPAVVQCDTAAGNTYWHGALLGQREAAWVKLLTDGQGTYCTTQQEDNATFEALTRGSKAGLLDLQRVAVLRTASNFDRPYPGQTPYDSLVGSNSGGFVPSLNNLYLAGGPLVNDIVTRWSVWKHGVPSPLEHHHHHH”, for which the “soluble on expression in E. coli” value was “not soluble”.
As for “MAKTKDKSIFVSSVDSDSDIEEIIMPPKPPVEVIQLDDSDDECQDICKPIYNKKVHKDPIVRVSYRQRIPESYFPGISTSLINVQREHNNRSKYDTWGSNSCSEPRISISNIERLEKPSYHEARRVPVFERLERSREISNGRNNQNPIRFNHKFVPPINRQTPLFNNQQLLVNVPFNEHHPTFLEPRPFYRSNVNEYNAGGLNRGSFRKMGRLNMEIVRDNDDFEEHFLAPNFPAKSASIDRRVDDSLSSNSYLRSGMIMASSERLEDPRFSGRLPVFARQINNQEINNDNFYQNSICYNHNNYPSNLESRVSFPFEARHHDADGLNRGRYQVMEHVNMGIMRNSEDFEDYDITQTDQDNHFYNDKDSGKHHRHRHRSKNNKKHKKHYDRNESGNSSECREEDDYEISNPSEKRHERKKRQRSSHRKESACVDEDNYILDEDRFYQQESDEYHNSLEMEREYEHGMDVGVKKEHSYKCDDIARNARKRARLTDDDMARREELFKEWSYSKEIVDGVTQLFGGPPRESERHQKKQKELVFEADRTAMHALSIRSGALVKARLLEIHYATGCHLIFLEEVKRGGYTYVELKGDPEHIKNAQKMIDDMVIDEHYIHDGRESIVYFYNAPHELRNTRGFDLNCRSIEKYCGIIIEKMREVFGIGGYVSTAPLKLTGSVNSIHMARETMQSKTKRFLDEEKFKETVEHCTPISFYRKIIGRCGENLKTIEKVTRTAIVFKRSFDNNEACFSIRGRTDNIKQAIEKIEEITHENQPADDDPGIFQVRVPENMVARLIGRHGVEINRIRSESKAKCYLNAIRGNLDDKFMVCSGGVEEAAYAAYLTKVKIGIIDPKVIQFNSDDFNNLSKVKPMEDPRLVMLKKRYAERKECK”, the entry is “soluble”; as for “MDTIDLGNNESLVYGVFPNQDGTFTAMTYTKSKTFKTENGARRWLERNSGE”, “soluble”; as for “MGHHHHHHSHINTPEQTVPYGLSNYRGSFRGKRSAGPLPGNLQLSHRPHLRCACVGRYDKACLHFCTQTLDVSSNSRTAEKTDKEEEGKVRGANRGLCQRRLKSRTNKASRL”, “not soluble”.
Then “MGSDKIHHHHHHMIYISKEINTPLYDQIYRQIQGDIISGNLSPGTLLPGIRTLAKTLGVARNTVDKAYTQLAVEGYIIPRKGAGFAVESIRDSKKSAELQPLSSGVSAHPGHEKAEKKLPYDFQYGSFPEEYFPKTAWKKHMLEVLALPHLSAQMTQYQDKQGNLSLRCELQNYLYQTRGVVCTEDQILIGCGLHYSLDTLCKLFAGHKRIAMEEPGYNGAKEVFQNNGFTIRHIPSTPYGLDLSQLKTLAVPIVYVTPSHQFPYGTVLPISKRRELLEWAAEENAYIIEDDYDSEYRYDANPIPSLQSIDGHDRVIYIGTFSKSLSPSLRINYMVLPKSLLPAYHQMFSTYSSPVTWLTQEVLASFLRSGDYTRHVRRMCAAYRKRHDVFVQQLSQHFGPNIVLHGQGAGLHFLVEFAEEVEAEGLIQMAEEAGVRVYPVTPFWSASEACPPNLLFAGYSLLNERQIQEGLRLLKEVWAPVLEIK”, with “not soluble”; and “MEPPSSRPEEPPSWEDLYKINLMPSELFLKFRKELQGLRVGVNLELYNEPTNDYHAKLVLKPLCPERKWKFIYEPLHQEVRVLSKKIPVTRFLNLQVGVGHNFQMNAIGWKWKLTSCLGGDGVSRIRNKTTLGLSPGIDFRFGWRADFVLPEVTGALGTEEPLFNMSSGRLEASLDRVEAIVTHSDYL”, with “soluble”; and “MGSDKIHHHHHHMFAPFAGETSRGEADMSGDLDQATMDRLFAKARTYSKFTKAPVSDDLLRQAWDLARMGPTSVNCQPMRVVFVRSSAAKERLKPALAPGNLDKTMAAPVTAIIAHDMEFYEQLPKLFPHADARAWFVGNEAMIQSTAFRNGTLQGAYFILALRAIGLDCGPMSGFDNAKLDEAFFKGTTLRSNFLVNIGHGDAAGLYPRGPRLDFDEACRVE”, with “not soluble”.
As for “MQQQVAPVPVIGVTADVLQMQANMKSLKSQLTNAPYGDSPLLKYNANPEIDGKSSPASTQRQLRFLAAKKGALSSSSDAQDSSFIIPPISKVMSDLSPAVTRSADVTKDLNYTSKEAPPSLARGLRNSTFNPNMSLTNRSVHESSALDKTIDSALDASMNGTSNRLGVRGSVRRSNLKQLDMSLLADSSRVGRESRVADPDALPRISESERRQDVVTSTPAVDPVQAVIQRHNDRNRDPPSLNLDTTCDEHTGLEPVSAATSSAASVVSTPSEETVNVNSAAGVKLTKPDYFSLPTINEMKNMIKNGRVVLEDGLTVGRSSYGSVYWPGRVELKDVALDEIVVFRHREVTVYPNEEEKAPEGQELNRPAEVTLERVWYTDKKTKKEVRDVVKLSEIGWREHLERQTIRMGAAFKDFRAETGSWVFRVDHFSKYGLADDDEPMDGSPPQQALQASSPLQVIDMNTSARDVNNQVQRKKVHKATDAHHQEIILERVPAPAALGDVVPIIRRVNRKGLGGGTLDDSREESCIGNMTTEFNESGHDSIIEEGQQPEKKPKLELLADLEYESSRFIRNLQELKVMPKANDPAHRFHGGGHSAKMIGYGKSKLIDIGIVKGRSSHVGWSETGCLVWSAQPRHNQVLFGTIDRTSDVNENTLISMLDVNVHVSETSRKGPSSQSNSVKSSLTSNFVTYSDSYSSMFAKYIDVAQAGGYDGHVSVWKLISALFPYERREGWSFERGEEIGEWLRTEAVKSVPDDRSADTSSNGVWNQLCLGDIDKAFQIAIDNNQPQLATMLQTSAVCPEATVHCFKAQLDNWKKCETLHLIPKETLKCYVLMSGLSHYEWDQDGKNHSINCLDGLNWIQALGLHVWYLRAWTGLEESYDAYQKDVNAGRAASNRGDLPGELIKLACESQHSVEVVLDCAAGENPNDYFLQWHVWSLLYSVGYRTMSKTSETRLHRNYSSQLEASSLSKYALFVLQHIDDDEERSTAVRSLLDRIARFTDNDMFDSISEQFDIPSEWIADAQFSIAKSVDDSTQLFELAVAAKNYLEICRLFVDDIAPTAVVAGDHDALKAACAMVRPFENQIPEWGATGMVYTDYCRLINLIENDAEEELLQDVLESLETRLHAPTISKNSLQKLSLQTIGRVLFEYRADKNTLPEWTKLLGHRQMFKIFRDRSSWGIERFTIEFD”, the “soluble on expression in E. coli” value was “not soluble”.
As for “MAGGEDRGDGEPVSVVTVRVQYLEDTDPFASANFPEPRRAPTCSLDGALPLGAQIPAVHRLLGAPLKLEDSALQVSPSGYYLDTELSLEEQREMLEGFYEEISKGRKPTLILRTQLSVRVNAILEKLYSSSGPELRRSLFSLKQIFQEDKDLVPEFVHSEGLSCLIRVGAAADHNYQSYILRALGQLMLFVDGMLGVVAHSDTIQWLYTLCASLSRLVVKTALKLLLVFVEYSENNAPLFIRAVNSVASTTGAPPWANLVSILEEKNGADPELLVYTVTLINKTLAALPDQDSFYDVTDALEQQGMEALVQRHLGTAGTDVDLRTQLVLYENALKLEDG”, the entry is “soluble”; as for “SAKAVRIGAEGYKLKLDGAVQEIDGRSVVLVDVDSITPLMFGGSMKEKAKLLDAKFLRKYYEENKDFFFLSTREEKKMFVTLQLAREYAELVDDQFLRGFFEKALESAQKAF”, “soluble”.
Consider “GMSAGQSSLSFAHGDETHPIEQKAFIGVDSAAGNVVKQFHAALQMGNEAIVRQSLAANVQIYEGGKVERSLTEYANHHMLADMAYLKGLTITPKEHQITITGDIAISTSISHAQGEYKGKSIDSMTMETLVLIKQADGRWKITHVHWS”, for which the “soluble on expression in E. coli” value is “soluble”.
Then “MGSDKIHHHHHHMQSGYYSSTGGIVTQFHRLDMISNNLANANTTGFKRDDVVIGDFLRLYEQQKEPLPLEDQTREAAKFLNRAMDRVPSIVEEYTDRSIGGITPSENRFDFALQSENAYFMIETPEGIRYTRDGSFTLNSEGRLVTKEGFAVLPREFVQSRQYIDIPDGVVIEADRNGNLYSRTLNNDELGDIIPLGNIAIASFENPKYLEKTGKNLYEYPQERMGERNLATNSGALVQGYLEKSNVNAVWEMTGLIETNRLVDMYSKVMKTHMDDLNTEAITKLAVKA”, with “not soluble”; and “MSPLNFTHILTQTVDELSESESYKGLFHQHKDGEPLPSPRVLCDVIELARSILFPGYYGNSTVNSRTINYHIGVNVEKLFNLLTEQILAGLCFGNGDRCDECTEAKREEAARLAAKFISKLPHLRRVLATDVEAAYNGDPAAQSFGEVIFCYPAIKAISNYRIAHELLELGVPLIPRIITEMAHSETGIDIHPGARIGTHFTIDHGTGVVIGATSIIGNNVKLYQGVTLGARSFPLDADGKPIKGIPRHPILEDNVIVYSNATILGRITIGRDATVGGNIWVTENIPAGARIVQTKAKKLEHHHHHH”, with “soluble”; and “MEYTSIADTGIEASRIGLGTWAIGGTMWGGTDEKTSIETIRAALDQGITLIDTAPAYGFGQSEEIVGKAIKEYMKRDQVILATKTALDWKNNQLFRHANRARIVEEVENSLKRLQTDYIDLYQVHWPDPLVPIEETAEVMKELYDAGKIRAIGVSNFSIEQMDTFRAVAPLHTIQPPYNLFEREMEESVLPYAKDNKITTLLYGSLCRGLLTGKMTEEYTFEGDDLRNHDPKFQKPRFKEYLSAVNQLDKLAKTRYGKSVIHLAVRWILDQPGADIALWGARKPGQLEALSEITGWTLNSEDQKDINTILENTISDPVGPEFMAPPTREEIPG”, with “soluble”.
Regarding “MSLANMHQEPDGSWMVEGQTTVRELNRVLKWGLPANGPRTLNGLILEHLESIPEAGTSLLIQGWPVTILQTQDNRVKMARVQPHHKRRRQPRRHEGHHHHHH”, the “soluble on expression in E. coli” value is on record as “soluble”.

The record behind these values is the DeepSol protein solubility set.
